T1: FR1exFc (UniProt P11362 22-376, limits assumed)
T1 construct: extracellular domain; also called FGFR1/Fc; FR1/Fc; not shown: Fc part; the construct of FR1exFc is not described
T1 sequence (looked up): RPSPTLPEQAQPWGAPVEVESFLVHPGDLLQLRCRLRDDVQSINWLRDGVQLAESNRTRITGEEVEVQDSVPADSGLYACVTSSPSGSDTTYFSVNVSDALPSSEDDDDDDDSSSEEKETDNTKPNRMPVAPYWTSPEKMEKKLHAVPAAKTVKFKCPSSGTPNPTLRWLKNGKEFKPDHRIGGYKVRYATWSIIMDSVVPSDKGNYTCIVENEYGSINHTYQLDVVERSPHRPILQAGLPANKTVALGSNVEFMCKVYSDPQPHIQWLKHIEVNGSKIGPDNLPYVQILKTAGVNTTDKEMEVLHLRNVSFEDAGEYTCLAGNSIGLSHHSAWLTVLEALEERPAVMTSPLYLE

T2: hFR3^D2Fc (human, UniProt P22607 143-250)
T2 construct: Only domain 2 of the entry stood in the assay; also called product of pChFR3^D2Fc; not shown: human Fc
T2 sequence: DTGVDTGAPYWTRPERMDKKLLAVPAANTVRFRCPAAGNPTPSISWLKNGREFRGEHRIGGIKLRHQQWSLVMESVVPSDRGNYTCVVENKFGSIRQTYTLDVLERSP


Experiments:
[1] = molecular target: T3, FGFR3 (wild type) on cells (human, UniProt P22607 23-806); assay: FACS
T3 construct: also called FDCP-FR3; FDCP-FGFR3

FR3exFc [2] = molecular target: T4, FR3exFc (human); assay: BIACORE
T4 construct: also called FGFR3/Fc; FR3/Fc
Method: (§1) The affinity measurements were performed by BIACORE® analysis according to the standard procedure recommended by the supplier (Pharmacia). The anti-Fc antibody was coupled via the EDC/NHS chemistry to the chip and subsequently FGFR3 was captured. The Fabs of the invention were then bound to this surface.

[3] = molecular target: T3, FGFR3 (wild type) on cells; assay: cell-based or functional assay
[4] = molecular target: T3, FGFR3 (wild type) on cells; assay: cell-based or functional assay; remark: listed apart in the source
[5] = molecular target: T3, FGFR3 (wild type) on cells; assay: indirect FACS-Scatchard
FR1exFc [6] = molecular target: T1, FR1exFc; assay: Affinity to FGFR1 (BIACORE and/or FACS)
FR3exFc [7] = molecular target: T4, FR3exFc; assay: BIACORE, FGFR3 captured on an anti-Fc chip
Method: as §1

FR3exFc [8] = molecular target: T4, FR3exFc; assay: BIACORE, FGFR3 captured on an anti-Fc chip; remark: listed apart in the source
Method: as §1

hFR3^D2Fc = molecular target: T2, hFR3^D2Fc; assay: ELISA, Fc fusion anchored on an anti-human Fc coated plate, bound Fab detected with HRP anti-human Fab
Source text: Constructs comprising cDNAs that code for segments of the extracellular domain of FGFR3 were generated (FIG. 10). D2 comprises Ig domain 2, D2-3 comprises Ig domains 2 and 3, and D1-3 comprises Ig domains 1, 2 and 3. These constructs include pChFR3^D2Fc that codes for Ig-like domain 2 of FGFR3 and pChFR3^{D2,3}Fc that codes for domain 2 and 3, both as human Fc fusions. The corresponding chimeric proteins, as well as the control hFR3exFc (containing domains 1, 2 and 3) were anchored to an ELISA plate coated with a human Fc antibody. A panel of 8 best Fabs, MSPRO2, 11, 12, 21, 24, 26, 28 and 29, were added, and bound Fab was determined with HRP-α human Fab (FIG. 11). […] Both bind to the Ig like domain 2 while the others require domain 3 for binding. It was then tested whether or not Fabs that belong to the second group would distinguish the FGFR3IIIc isoform from the FGFRIIIb from. FDCP-FR3IIIb or FDCP-FR3IIIc cells were incubated in the presence of 1.25 ng/ml FGF9 with increasing doses of either MSPRO12 or MSPRO29. Ly6.3 was included as control. After 2 days in culture, cell proliferation was measured with the XTT reagent. Clearly, MSPRO29 (open triangle) was completely ineffective against the IIIb isoform (FIG. 12).

FR3exFc [9] = molecular target: T4, FR3exFc; assay: ELISA, FGFR3/Fc anchored on anti-human Fc coated wells, about 5 µg Fab per well (labelled with cold iodine at 0.04 mM NaI), detection with anti-human Fab; parallel wells without FR3/Fc
Method: To determine the effect of iodination on Fab activity, 50 μg of MSPRO29 was first labeled with cold iodine using Pierce IodoGen coated tubes. The process was carried out either without iodine, with 0.04 mM NaI (low I) or with 1 mM NaI (high I). MSPRO29 was then purified through a SEPHADEX® G-50 column. The ability of the modified Fab to bind FGFR3 was determined by ELISA. MAXISORP® wells were coated with anti-human Fc. FGFR3/Fc was then anchored to the wells. In parallel, a similar set of wells was left in blocking buffer only (no FR3/Fc, hatched bars). The unmodified (no I) or the modified MSPRO29 (low or high, 2 G-50 fractions each, 1 and 2) were added at approximately 5 μg/well and binding was measured with anti-human Fab. Fresh MSPRO29 and buffer alone were included as controls (FIG. 14: FGFR3/Fc, checkered bars; no FGFR3/Fc, hatched bars). MS-PRO29 was labeled with 1 mCi ¹²⁵I. The specific activity of the Fab was 17 μCi/μg.

[10] = molecular target: T3, FGFR3 (wild type) on cells; assay: cell-based or functional assay; remark: listed apart in the source
FR3exFc [11] = molecular target: T4, FR3exFc; assay: BIAcore, Fab-dHLX-MH miniantibody
FR1exFc [12] = molecular target: T1, FR1exFc; assay: ELISA, FGFR/Fc captured on anti-human Fc coated plate, detection with anti-human Fab-HRP
FR3exFc [13] = molecular target: T4, FR3exFc; assay: BIAcore, Fab-dHLX-MH miniantibody; Fab-dHLX-MH miniantibody (dimer)
[14] = molecular target: T3, FGFR3 (wild type) on cells; assay: indirect FACS-Scatchard; indirect FACS-Scatchard, Table 5 (Table 1C gives 1.1 nM)
FR3exFc [15] = molecular target: T4, FR3exFc; assay: BIAcore; number in parentheses taken as the monomeric Fab; monomeric Fab, value in parentheses of Table 1E (Tables 1C and 5 give 9 nM)
FR3exFc [16] = molecular target: T4, FR3exFc; assay: BIAcore; number in parentheses taken as the monomeric Fab; monomeric Fab, not miniantibody

T3 sequence (P22607 23-806 limits assumed): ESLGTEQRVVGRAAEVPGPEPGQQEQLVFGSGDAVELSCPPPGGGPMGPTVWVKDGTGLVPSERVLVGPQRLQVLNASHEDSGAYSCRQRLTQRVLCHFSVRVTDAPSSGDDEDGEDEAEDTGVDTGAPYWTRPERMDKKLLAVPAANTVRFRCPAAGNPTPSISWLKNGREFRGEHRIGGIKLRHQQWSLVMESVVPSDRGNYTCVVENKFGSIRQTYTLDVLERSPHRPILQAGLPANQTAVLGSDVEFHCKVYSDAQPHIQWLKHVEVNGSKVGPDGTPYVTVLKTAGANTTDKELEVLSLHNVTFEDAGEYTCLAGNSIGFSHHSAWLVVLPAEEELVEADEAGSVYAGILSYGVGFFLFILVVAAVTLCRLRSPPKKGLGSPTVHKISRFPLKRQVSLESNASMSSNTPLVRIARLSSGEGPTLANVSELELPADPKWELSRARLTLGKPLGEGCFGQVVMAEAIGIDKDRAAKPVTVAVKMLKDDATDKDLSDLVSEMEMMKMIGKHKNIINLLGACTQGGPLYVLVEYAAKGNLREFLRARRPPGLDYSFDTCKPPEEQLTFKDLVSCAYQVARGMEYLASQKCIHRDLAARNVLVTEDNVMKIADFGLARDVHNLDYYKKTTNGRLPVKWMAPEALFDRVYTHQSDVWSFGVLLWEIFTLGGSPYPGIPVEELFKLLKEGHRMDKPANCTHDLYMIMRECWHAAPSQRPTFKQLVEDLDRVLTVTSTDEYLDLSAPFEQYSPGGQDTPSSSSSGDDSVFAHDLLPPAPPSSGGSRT
T4 sequence (chain, as listed by the source limits assumed): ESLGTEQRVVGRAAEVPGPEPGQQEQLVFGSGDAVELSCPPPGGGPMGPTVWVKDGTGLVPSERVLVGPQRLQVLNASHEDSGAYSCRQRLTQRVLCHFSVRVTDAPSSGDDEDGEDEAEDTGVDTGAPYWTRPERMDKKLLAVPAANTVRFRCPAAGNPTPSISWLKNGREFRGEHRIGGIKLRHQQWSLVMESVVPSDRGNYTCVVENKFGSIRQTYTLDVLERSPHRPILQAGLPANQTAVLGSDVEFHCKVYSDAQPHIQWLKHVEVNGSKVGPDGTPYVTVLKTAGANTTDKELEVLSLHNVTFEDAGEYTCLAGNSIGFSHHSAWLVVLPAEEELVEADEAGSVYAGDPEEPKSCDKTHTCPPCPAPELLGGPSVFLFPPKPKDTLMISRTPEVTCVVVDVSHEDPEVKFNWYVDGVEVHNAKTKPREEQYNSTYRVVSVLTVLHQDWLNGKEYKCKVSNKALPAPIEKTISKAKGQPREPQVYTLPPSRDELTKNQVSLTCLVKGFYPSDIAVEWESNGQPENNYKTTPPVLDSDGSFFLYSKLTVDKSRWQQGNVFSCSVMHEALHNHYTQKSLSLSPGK

| Kd [1] | koff (FR3exFc [2]) | IC50 FR3 (FGF9), FDCP-FGFR3 proliferation assay [4] | Kd (FR3exFc [7]) | Kd (FR3exFc [8]) | IC50, FDCP-FGFR3 proliferation assay with FGF9, dimeric dHLX format [10] | Binder | also measured |
| --- | --- | --- | --- | --- | --- | --- | --- |
| < 1 nM | 0.0014 s⁻¹ | 20 nM | 6 nM | 6 nM | – | MSPRO29 (Fab, V domains shown) VH: QVQLVQSGAEVKKPGASVKVSCKASGYTFTSYYMHWVRQAPGQGLEWMGWINPNSGGTNYAQKFQGRVTMTRDTSISTAYMELSSLRSEDTAVYYCARTWQYSYFYYLDGGYYFDIWGQGTLVTVSS VL: DIVLTQSPATLSLSPGERATLSCRASQSVSSSYLAWYQQKPGQAPRLLIYGASSRATGVPARFSGSGSGTDFTLTISSLEPEDFATYYCQQTNNAPVTFGQGTKVEIKR | amount of Fab that inhibits FGFR3 activation (JNK signaling) in RCJ-FR3 cells [3]: < 5 µg; Kd [5]: 0.4 nM; Kd (FR1exFc [6]): 29 nM; binding result (hFR3^D2Fc): no binding |
| 1.1 nM | 0.0036 s⁻¹ | 50 nM | 9 nM | 9 nM | – | MSPRO21 (Fab, V domains shown) VH: QVQLVQSGAEVKKPGSSVKVSCKASGGTFSSYAISWVRQAPGQGLEWMGGIIPIFGTANYAQKFQGRVTITADESTSTAYMELSSLRSEDTAVYYCARDNWFKPFSDVWGQGTLVTVSS VL: not shown | IC50, FDCP-FGFR3 proliferation assay with FGF9, monomeric Fab (in parentheses) [10]: 50 nM; Kd [14]: 0.6 nM; binding result (hFR3^D2Fc): no binding; Kd (FR3exFc [15]): 4.1 nM |

More lines, now with the values behind:

| Binder | Kd [1] | koff (FR3exFc [2]) | IC50 FR3 (FGF9), FDCP-FGFR3 proliferation assay [4] | Kd (FR3exFc [7]) | Kd (FR3exFc [8]) | IC50, FDCP-FGFR3 proliferation assay with FGF9, dimeric dHLX format [10] | also measured |
| --- | --- | --- | --- | --- | --- | --- | --- |
| iodinated MSPRO29 (Fab, V domains shown, iodinated with IodoGen (cold NaI at 0.04 mM or 1 mM, or 125I); sites not stated, MSPRO29 Fab after iodination; which preparation (low I, high I, 125I) is told in each row; also called modified MSPRO29 (low I; high I)) VH: QVQLVQSGAEVKKPGASVKVSCKASGYTFTSYYMHWVRQAPGQGLEWMGWINPNSGGTNYAQKFQGRVTMTRDTSISTAYMELSSLRSEDTAVYYCARTWQYSYFYYLDGGYYFDIWGQGTLVTVSS VL: DIVLTQSPATLSLSPGERATLSCRASQSVSSSYLAWYQQKPGQAPRLLIYGASSRATGVPARFSGSGSGTDFTLTISSLEPEDFATYYCQQTNNAPVTFGQGTKVEIKR | – | – | – | – | – | – | binding result (FR3exFc [9]): binds |
| MS-Pro-12-dHLX-MH (Fab, V domains shown, Fab mini-antibody format Fab-dHLX-MH, a dimer of the Fab monomer; also called MSPRO12 dimeric dHLX format; Fab-dHLX) VH: QVQLKESGPALVKPTQTLTLTCTFSGFSLSTSGVGVGWIRQPPGKALEWLALIDWDDDKYYSTSLKTRLTISKDTSKNQVVLTMTNMDPVDTATYYCARYHSWYEMGYYGSTVGYMFDYWGQGTLVTVSS VL: DIELTQPPSVSVAPGQTARISCSGDALGDKYASWYQQKPGQAPVLVIYDDSDRPSGIPERFSGSNSGNTATLTISGTQAEDEADYYCQSYDFDFAVFGGGTKLTVLG | – | – | – | – | – | 26 nM | Kd (FR3exFc [11]): 1.2 nM; binding result (FR1exFc [12]): no binding |
| MS-Pro-21-dHLX-MH (Fab, V domains shown, Fab mini-antibody format Fab-dHLX-MH, a dimer of the Fab monomer; also called MSPRO21 dimeric dHLX format; Fab-dHLX) VH: QVQLVQSGAEVKKPGSSVKVSCKASGGTFSSYAISWVRQAPGQGLEWMGGIIPIFGTANYAQKFQGRVTITADESTSTAYMELSSLRSEDTAVYYCARDNWFKPFSDVWGQGTLVTVSS VL: not shown | – | – | – | – | – | 20 nM | Kd (FR3exFc [13]): 2.2 nM |
| MS-Pro-2-dHLX-MH (Fab, V domains shown, Fab mini-antibody format Fab-dHLX-MH, a dimer of the Fab monomer made as a fusion protein; also called MSPRO2 dimeric dHLX format; Fab-dHLX) VH: QVQLVQSGAEVKKPGASVKVSCKASGYTFTSYYMHWVRQAPGQGLEWMGWINPNSGGTNYAQKFQGRVTMTRDTSISTAYMELSSLRSEDTAVYYCARDFLGYEFDYWGQGTLVTVSS VL: DIELTQPPSVSVAPGQTARISCSGDALGDKYASWYQQKPGQAPVLVIYDDSDRPSGIPERFSGSNSGNTATLTISGTQAEDEADYYCQSYDYSADYVFGGGTKLTVLG | – | – | – | – | – | 61 nM | Kd (FR3exFc [13]): 4.3 nM; binding result (FR1exFc [12]): no binding |
| MSPRO2 (Fab, V domains shown) VH: QVQLVQSGAEVKKPGASVKVSCKASGYTFTSYYMHWVRQAPGQGLEWMGWINPNSGGTNYAQKFQGRVTMTRDTSISTAYMELSSLRSEDTAVYYCARDFLGYEFDYWGQGTLVTVSS VL: DIELTQPPSVSVAPGQTARISCSGDALGDKYASWYQQKPGQAPVLVIYDDSDRPSGIPERFSGSNSGNTATLTISGTQAEDEADYYCQSYDYSADYVFGGGTKLTVLG | 43 nM | 0.02 s⁻¹ | 360 nM | 37 nM | 37 nM | – | IC50 of inhibition of FDCP-FR3 proliferation with FGF9 (XTT) [3]: ~1 µg/mL; IC50, FDCP-FGFR3 proliferation assay with FGF9, monomeric Fab (in parentheses) [10]: 360 nM; Kd [5]: 43 nM; Kd (FR3exFc [16]): 37 nM |
